Assay results as given in PMC11438860, “Human 8-oxoguanine glycosylase OGG1 binds nucleosome at the dsDNA ends and the super-helical locations”.

Key:
OGG1(K249Q) = OGG1(K249Q) (human, UniProt O15527 1-345, K249Q); assay: cryo-EM; protein:DNA 1.5:1; 8-oxoG flipped out, DNA bent 65 degrees; 3.6 A; EMSA: 40 mM HEPES pH 7.4, 50 mM NaCl, 5 mM bME, 5% glycerol, 30 min on ice, 4-20% native gel; cryo-EM OGG1-DNA assembly: 20 mM HEPES pH 7.4, 100 mM NaCl, 5 mM bME, on ice; details: protein: recombinant; tags: N-terminal 6His; blunt
full-length OGG1 (EMSA) = full-length OGG1 (EMSA) (human, UniProt O15527 1-345); assay: EMSA; 2.5 uM DNA; all DNA shifted at 5 uM protein or above; two super-shift bands; EMSA: 40 mM HEPES pH 7.4, 50 mM NaCl, 5 mM bME, 5% glycerol, 30 min on ice, 4-20% native gel; cryo-EM OGG1-DNA assembly: 20 mM HEPES pH 7.4, 100 mM NaCl, 5 mM bME, on ice; details: protein: recombinant; blunt
full-length OGG1 (EMSA), sequence (O15527 whole entry): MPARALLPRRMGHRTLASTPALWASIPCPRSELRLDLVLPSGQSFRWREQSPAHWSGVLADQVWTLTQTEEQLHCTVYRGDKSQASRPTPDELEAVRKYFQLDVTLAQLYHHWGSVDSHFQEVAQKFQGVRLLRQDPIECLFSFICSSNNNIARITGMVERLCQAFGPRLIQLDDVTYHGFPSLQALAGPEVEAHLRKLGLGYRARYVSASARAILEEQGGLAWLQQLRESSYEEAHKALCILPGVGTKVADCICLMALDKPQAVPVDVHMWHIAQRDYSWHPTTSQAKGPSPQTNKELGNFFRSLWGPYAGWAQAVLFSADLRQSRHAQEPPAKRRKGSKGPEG

OGG1(K249Q), sequence (O15527 whole entry K249Q): as the sequence (O15527 whole entry) above, with K249Q counted along it

B1: 35-bp 8-oxoG DNA (dsDNA)
DNA 1: ATGCCTCGCAGAATCCCGCTGCCGAGGCCGCTCAA
DNA 2: TTGAGCGGCCTCGGCAGCGGGATTCTGCGAGGCAT
modifications: 8-oxo-dG at position 18 of strand 1 (text numbers it 17), within unmethylated Cp-8-oxoG
- binding result (OGG1(K249Q)): binds
- binding result (full-length OGG1 (EMSA)): binds
